Tested on: peptide library, one residue held at a place counted from the Y acceptor
Test: relative phosphorylation of the sub-library (ratio to the mean residue at this position); higher = residue favoured
Summary of the method: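 Biotinylated Tyr-centred peptide library mixtures, each fixing one residue at one position from −5 to +5, were incubated with purified recombinant kinases in 384-well plates for 90 min with 50 μM ATP plus γ-32P-ATP. Streptavidin membranes captured the peptides, which were rinsed and quantified by phosphorimaging and ImageQuant. At each position, intensities were divided by the sum of the 18 randomized residues (16 for the Ser/Thr-free library) and multiplied by that number. Each value is phosphorylation relative to the mean randomized residue.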

Sequence of IGF1R, construct: aa960-end, human (P08069 960-1367, looked up): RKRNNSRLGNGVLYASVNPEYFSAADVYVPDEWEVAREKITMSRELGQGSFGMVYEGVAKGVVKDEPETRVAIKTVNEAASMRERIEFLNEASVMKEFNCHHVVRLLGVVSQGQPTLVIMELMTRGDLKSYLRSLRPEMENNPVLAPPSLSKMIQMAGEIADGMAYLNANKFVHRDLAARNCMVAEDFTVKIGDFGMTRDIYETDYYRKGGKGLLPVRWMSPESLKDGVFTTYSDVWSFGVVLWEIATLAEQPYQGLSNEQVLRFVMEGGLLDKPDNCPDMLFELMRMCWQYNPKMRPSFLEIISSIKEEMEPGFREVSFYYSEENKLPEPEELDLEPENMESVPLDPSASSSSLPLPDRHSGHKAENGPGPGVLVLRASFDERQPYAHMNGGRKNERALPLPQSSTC

IGF1R, construct: aa960-end, human (from UniProt P08069)
relative phosphorylation
Details | at +1 | at +2 | at +3 | at +4 | at +5 | at -1 | at -2 | at -3 | at -4 | at -5
A fixed | 1.7 | 0.629 | 0.386 | 0.818 | 0.794 | 1.07 | 1.11 | 0.892 | 1.01 | 0.847
D fixed | 0.473 | 0.626 | 0.286 | 1.12 | 0.708 | 3.28 | 1.46 | 1.52 | 1.41 | 1.33
E fixed | 0.838 | 1.42 | 0.255 | 1.68 | 0.671 | 1.61 | 1.71 | 1.77 | 1.86 | 1.05
F fixed | 1.68 | 1.48 | 2 | 1.45 | 2.54 | 0.717 | 0.697 | 1.1 | 1.05 | 1.01
G fixed | 0.585 | 0.273 | 0.367 | 0.844 | 0.83 | 0.547 | 1.18 | 0.991 | 1.03 | 1.06
H fixed | 1.42 | 0.838 | 1.57 | 1.19 | 1.03 | 0.864 | 0.937 | 1.05 | 0.915 | 0.963
I fixed | 1.28 | 1.15 | 1.94 | 0.843 | 0.91 | 1.2 | 0.736 | 0.654 | 0.819 | 0.997
K fixed | 0.216 | 0.408 | 0.307 | 0.679 | 0.648 | 0.21 | 0.8 | 0.711 | 0.863 | 0.983
L fixed | 1.08 | 1.59 | 1.35 | 0.694 | 1.02 | 0.964 | 0.839 | 0.798 | 0.886 | 0.916
M fixed | 2.42 | 1.67 | 1.43 | 1.01 | 0.951 | 0.744 | 0.651 | 0.853 | 0.875 | 0.954
N fixed | 0.319 | 0.74 | 0.288 | 0.787 | 0.764 | 1.83 | 1.34 | 1.4 | 0.971 | 1.12
P fixed | 0.311 | 0.589 | 0.291 | 0.796 | 1.62 | 1.11 | 1.1 | 0.914 | 0.98 | 1.06
Q fixed | 0.646 | 0.733 | 0.353 | 1.12 | 0.674 | 0.663 | 1.16 | 0.922 | 1.14 | 1.09
R fixed | 0.178 | 0.588 | 0.433 | 0.799 | 0.914 | 0.239 | 0.893 | 0.899 | 0.977 | 1.12
S fixed | 0.879 | 0.659 | 0.423 | 0.883 | 0.841 | 0.75 | 1.16 | 1.01 | 0.82 | 0.858
T fixed | 0.755 | 0.661 | 0.525 | 0.86 | 0.704 | 0.778 | 0.86 | 0.973 | 0.645 | 0.864
V fixed | 1.51 | 1.13 | 1.21 | 0.873 | 0.695 | 0.966 | 0.739 | 0.652 | 0.787 | 0.788
W fixed | 1.71 | 2.83 | 4.6 | 1.55 | 1.68 | 0.451 | 0.63 | 0.901 | 0.967 | 0.983
pThr fixed | 1.78 | 0.865 | 0.247 | 0.783 | 0.704 | 2.1 | 1.17 | 1.37 | 1.18 | 1.1
pTyr fixed | 1.8 | 2.89 | 0.461 | 1.93 | 0.573 | 6.45 | 2.12 | 1.56 | 1.65 | 1.48
